Drawing on article PMC8660799, “Cryo-EM reveals unique structural features of the FhuCDB Escherichia coli ferrichrome importer” (Communications Biology, 2021), this text covers Kd for one molecule.

Common to all, as to test: MST; 40 nM FhuCB (wild type or FhuB mutant) in detergent, His-tag labelled with red-tris-NTA 2nd generation dye; serial dilution of 1.6 μM FhuD with substrate ferrichrome; with ATP-Mg; Monolith NT.115pico, 20% LED power, medium MST power
Details in all cases: both partners purified

One test concerns the target T1, FhuCB with FhuB R390A (Escherichia coli, UniProt P07821 1-265; P06972 1-660, R390A, red-tris-NTA 2nd generation dye on the His-tag).
T1 construct: FhuC, ATPase subunit, Escherichia coli; as in Dm2; FhuB, membrane subunit, Escherichia coli, 660 residues; Mutant made on the FhuCB-pET15b construct by direct mutagenesis; source: E. coli BL21(DE3) C43, purified (TALON, Superose 6 gel filtration) in LMNG; not shown: His-tag, N-terminal, kept; copies: 2 + 1
T1 sequence (looked up) 1: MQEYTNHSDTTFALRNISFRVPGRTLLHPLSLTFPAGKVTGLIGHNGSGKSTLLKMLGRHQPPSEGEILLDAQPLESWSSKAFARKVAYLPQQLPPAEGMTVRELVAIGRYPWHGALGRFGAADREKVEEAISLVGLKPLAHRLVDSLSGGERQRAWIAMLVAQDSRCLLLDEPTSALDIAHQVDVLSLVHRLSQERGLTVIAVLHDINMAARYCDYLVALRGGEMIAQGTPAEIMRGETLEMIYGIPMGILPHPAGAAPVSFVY
T1 sequence (looked up) 2: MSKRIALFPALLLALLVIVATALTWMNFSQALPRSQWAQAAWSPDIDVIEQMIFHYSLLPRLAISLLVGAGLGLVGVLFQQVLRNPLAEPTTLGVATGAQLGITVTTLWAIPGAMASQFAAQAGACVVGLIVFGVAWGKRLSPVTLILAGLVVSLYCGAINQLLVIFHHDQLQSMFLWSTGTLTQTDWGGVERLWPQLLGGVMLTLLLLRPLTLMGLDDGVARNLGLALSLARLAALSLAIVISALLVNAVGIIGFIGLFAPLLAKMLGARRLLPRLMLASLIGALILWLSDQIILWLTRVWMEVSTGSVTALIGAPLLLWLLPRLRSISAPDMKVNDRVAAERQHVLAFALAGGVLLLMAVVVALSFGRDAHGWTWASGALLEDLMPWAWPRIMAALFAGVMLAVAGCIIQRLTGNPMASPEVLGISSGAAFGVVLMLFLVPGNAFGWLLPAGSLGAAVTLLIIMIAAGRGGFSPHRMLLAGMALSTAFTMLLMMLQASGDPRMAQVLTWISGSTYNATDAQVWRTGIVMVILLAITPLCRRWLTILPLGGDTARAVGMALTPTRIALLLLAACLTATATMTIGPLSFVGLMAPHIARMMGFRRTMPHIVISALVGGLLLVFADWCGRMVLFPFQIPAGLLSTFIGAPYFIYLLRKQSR

For the next test, the target named is T2, FhuCB with FhuB Q636A (Escherichia coli, UniProt P07821 1-265; P06972 1-660, Q636A, red-tris-NTA 2nd generation dye on the His-tag).
T2 construct: FhuC, ATPase subunit, Escherichia coli; as in Dm2; FhuB, membrane subunit, Escherichia coli, 660 residues; Mutant made on the FhuCB-pET15b construct by direct mutagenesis; source: E. coli BL21(DE3) C43, purified (TALON, Superose 6 gel filtration) in LMNG; not shown: His-tag, N-terminal, kept; copies: 2 + 1
T2 sequence (looked up) 1: T1 sequence (looked up) 1
T2 sequence (looked up) 2: T1 sequence (looked up) 2 with A390R, Q636A

Another test deals with T3, FhuCB with FhuB S57A (Escherichia coli, UniProt P07821 1-265; P06972 1-660, S57A, red-tris-NTA 2nd generation dye on the His-tag).
T3 construct: FhuC, ATPase subunit, Escherichia coli; as in Dm2; FhuB, membrane subunit, Escherichia coli, 660 residues; Mutant made on the FhuCB-pET15b construct by direct mutagenesis; source: E. coli BL21(DE3) C43, purified (TALON, Superose 6 gel filtration) in LMNG; not shown: His-tag, N-terminal, kept; copies: 2 + 1
T3 sequence (looked up) 1: T1 sequence (looked up) 1
T3 sequence (looked up) 2: T1 sequence (looked up) 2 with S57A, A390R

Residue numbers refer to the chain shown, from its start.

B1: FhuD (natural protein, Escherichia coli)
chain: AAIDPNRIVALEWLPVELLLALGIVPYGVADTINYRLWVSEPPLPDSVIDVGLRTEPNLELLTEMKPSFMVWSAGYGPSPEMLARIAPGRGFNFSDGKQPLAMARKSLTEMADLLNLQSAAETHLAQYEDFIRSMKPRFVKRGARPLLLTTLIDPRHMLVFGPNSLFQEILDEYGIPNAWQGETNFWGSTAVSIDRLAAYKDVDVLCFDHDNSKDMDALMATPLWQAMPFVRAGRFQRVPAVWFYGATLSAMHFVRVLDNAIGGKA
notes: In 'FhuD-ferrichrome' the protein was loaded with the small molecule ferrichrome; also called FhuD-ferrichrome (when loaded with ferrichrome)
In the case of B1, the Kd with FhuCB with FhuB R390A came out at 75.8 nM; with FhuCB with FhuB Q636A, 90.2 nM; in the test with FhuCB with FhuB S57A, 88.4 nM.

The Kd is the equilibrium constant for the complex coming apart. A low value points to a tighter complex.
